For the assay, the target named is T1, nitrile hydratase (NHase) β subunit derived from Rhodococcus sp. N-771, in the nitrosylated (inactive) enzyme (Rhodococcus sp. N-771, UniProt P13449 1-212).
T1 sequence (looked up): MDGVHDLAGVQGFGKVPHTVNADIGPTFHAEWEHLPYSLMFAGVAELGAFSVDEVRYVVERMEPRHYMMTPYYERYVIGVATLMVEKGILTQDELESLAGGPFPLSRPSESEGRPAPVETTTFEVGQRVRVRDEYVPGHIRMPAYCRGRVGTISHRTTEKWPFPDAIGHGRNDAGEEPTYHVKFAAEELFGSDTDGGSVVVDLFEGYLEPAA
The assay is described as follows: X-ray crystallography of nitrosylated NHase, 1.7 Å; hetero-tetramer (αβ)2 in the crystal, dimer-tetramer equilibrium in solution by sedimentation equilibrium and dynamic light scattering. The source says: Two αβ hetero-dimers existed in an asymmetric unit of the crystal. […] The structural model was crystallographically refined at 1.7 Å resolution (R-factor 0.179, R-free0.228). […] The non-heme iron center was located at the interface between the two subunits in the hetero-dimer.

B1: nitrile hydratase (NHase) α subunit derived from Rhodococcus sp. N-771, in the nitrosylated (inactive) enzyme (enzyme, UniProt P13448 2-207, looked up)
chain: SVTIDHTTENAAPAQAPVSDRAWALFRALDGKGLVPDGYVEGWKKTFEEDFSPRRGAELVARAWTDPEFRQLLLTDGTAAVAQYGYLGPQGEYIVAVEDTPTLKNVIVCSLCSCTAWPILGLPPTWYKSFEYRARVVREPRKVLSEMGTEIASDIEIRVYDTTAETRYMVLPQRPAGTEGWSQEQLQEIVTKDCLIGVAIPQVPTV
modifications: cysteinesulfinic acid (Cys-SO2H) at 112; cysteinesulfenic acid (Cys-SOH) at 114; non-heme iron with bound NO coordinated by Cys109, Cys112, Ser113, Cys114
Take B1: the binding result is given as “binds”.

These data come from US20020037996A1 (INSTITUTE OF PHYSICAL AND CHEMICAL RESEARCH, published 2002).
